Laboratory results taken from article PMC314469, “Protein Interaction Networks by Proteome Peptide Scanning” (PLoS Biology, 2004).

T1: Yhr016c SH3 (YSC84_YEAST), P32793
T1 chain: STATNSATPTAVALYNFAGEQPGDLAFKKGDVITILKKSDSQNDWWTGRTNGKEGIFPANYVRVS

T2: Boi2 SH3 (BOI2_YEAST), P39969
T2 chain: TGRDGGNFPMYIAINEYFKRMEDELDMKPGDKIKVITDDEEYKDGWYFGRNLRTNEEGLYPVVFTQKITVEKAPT

T3: Rvs167 SH3 (RV167_YEAST), P39743
T3 chain: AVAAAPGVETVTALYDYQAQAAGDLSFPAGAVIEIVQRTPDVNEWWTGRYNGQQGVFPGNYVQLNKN

T4: Yfr024 SH3 (LSB3_YEAST), P43603
T4 chain: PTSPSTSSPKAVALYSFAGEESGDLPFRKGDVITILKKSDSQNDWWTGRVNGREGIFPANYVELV

T5: Myo5 SH3 (MYO5_YEAST), Q04439
T5 chain: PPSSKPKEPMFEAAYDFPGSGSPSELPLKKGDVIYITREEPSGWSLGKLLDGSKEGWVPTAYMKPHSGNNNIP

T6: Boi1 SH3 (BOI1_YEAST), P38041
T6 chain: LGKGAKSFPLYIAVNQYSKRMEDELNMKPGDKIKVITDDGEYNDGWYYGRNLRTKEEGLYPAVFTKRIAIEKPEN


Key:
Assay in all cases: SPOT array
[1] = target: Sho1 SH3 (SHO1_YEAST), P40073
Sho1 SH3 (SHO1_YEAST), P40073, sequence (P40073 295-366): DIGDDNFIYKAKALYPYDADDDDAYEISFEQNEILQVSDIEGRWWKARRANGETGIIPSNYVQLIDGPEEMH

[2] = target: T1, Yhr016c SH3 (YSC84_YEAST), P32793
[3] = target: T2, Boi2 SH3 (BOI2_YEAST), P39969
[4] = target: T3, Rvs167 SH3 (RV167_YEAST), P39743
[5] = target: T4, Yfr024 SH3 (LSB3_YEAST), P43603
[6] = target: T5, Myo5 SH3 (MYO5_YEAST), Q04439
[7] = target: T6, Boi1 SH3 (BOI1_YEAST), P38041

Row | Binder | normalised SPOT signal, Boehringer light units (BLU); mean over the file's lines of this peptide [1] | normalised SPOT signal, Boehringer light units (BLU); mean over the file's lines of this peptide [2] | normalised SPOT signal, Boehringer light units (BLU); mean over the file's lines of this peptide [3] | normalised SPOT signal, Boehringer light units (BLU); mean over the file's lines of this peptide [4] | normalised SPOT signal, Boehringer light units (BLU); mean over the file's lines of this peptide [5] | normalised SPOT signal, Boehringer light units (BLU); mean over the file's lines of this peptide [6] | normalised SPOT signal, Boehringer light units (BLU); mean over the file's lines of this peptide [7]
1 | MAEFRRVPLPPMAE [YML058W 28-41] | 57.5 | 7260 | 64.1 | 30400 | 30500 | 443 | 59.6
2 | MKPQKIAPKFPGTV [YDR091C 417-430] | 142 | 40.5 | 31.6 | 137 | 394 | 416 | 1110
3 | MLFMKGSPSEPKSG [YDR098C 199-212] | 59.6 | 262 | 128 | 377 | 1090 | 251 | 30.9
4 | LVGLKYEPLFPYFA [YBL076C 285-298] | 76.6 | 25.3 | 108 | 35.1 | 26.7 | 125 | 50.5
5 | LWRPRIVPILPYIT [YDR335W 779-792] | 112 | 331 | 1870 | 627 | 1540 | 1050 | 8230
6 | MAFIKILPNNPWPF [YGL065C 457-470] | 166 | 4.3 | 0 | 46.5 | 75.2 | 59.9 | 44.1
7 | MLNSKHYPYIPVAN [YBR096W 107-120] | 35 | 128 | 50 | 368 | 595 | 171 | 57.3
8 | MDGIKELPEFPIKK [YMR266W 737-750] | 3820 | 40.3 | 0.9 | 32.2 | 402 | 138 | 25.9
9 | LVPSKAIPPLPQLD [YJL066C 98-111] | 102 | 26 | 51.2 | 28.6 | 226 | 558 | 61.8

Continued, values first:

Row | normalised SPOT signal, Boehringer light units (BLU); mean over the file's lines of this peptide [1] | normalised SPOT signal, Boehringer light units (BLU); mean over the file's lines of this peptide [2] | normalised SPOT signal, Boehringer light units (BLU); mean over the file's lines of this peptide [3] | normalised SPOT signal, Boehringer light units (BLU); mean over the file's lines of this peptide [4] | normalised SPOT signal, Boehringer light units (BLU); mean over the file's lines of this peptide [5] | normalised SPOT signal, Boehringer light units (BLU); mean over the file's lines of this peptide [6] | normalised SPOT signal, Boehringer light units (BLU); mean over the file's lines of this peptide [7] | Binder
10 | 24500 | 83.4 | 23 | 65.7 | 489 | 307 | 80.9 | MPNLKRLPIPPLQD [YAR035W 1-14]
11 | 34.3 | 473 | 74.3 | 196 | 2100 | 222 | 3140 | MDKFRIPPKSPNIE [YDR017C 929-942]
12 | 30.7 | 77.5 | 31.4 | 30.8 | 475 | 91.4 | 41.3 | MDMDRNVPLAPNLN [YJR066W 21-34]
13 | 44.8 | 126 | 50.2 | 153 | 716 | 154 | 898 | MQSKKEDPNRPKNL [YMR241W 242-255]
14 | 189 | 16200 | 18.3 | 2730 | 11800 | 112 | 5980 | LYREREEPPLPKRI [YKL214C 53-66]
15 | 19.1 | 242 | 50.6 | 251 | 733 | 99.4 | 146 | MGLNKDVPHSPESL [YPL111W 171-184]
16 | 231 | 615 | 133 | 145 | 938 | 123 | 132 | MKAYRANPPLPIDS [YDR104C 798-811]
